# Measurements from paper PMC3163069.
# Like-named read-outs stand apart in the source and are kept apart here.
# What was measured:
# [1] = biological target: Id (pBIND-Id, fusion with the DNA-binding domain of yeast gal4); assay: two-hybrid
# [2] = biological target: Id (pBIND-Id, fusion with the DNA-binding domain of yeast gal4); assay: two-hybrid; remark: listed apart in the source
substance,measurement,setting,value
"MyoD (pACT-MyoD, fusion with the VP16 transactivation domain of herpes simplex virus) (natural protein)",luciferase reporter activation over basal (two-hybrid),[1],10 fold
same,luciferase reporter activation over basal (two-hybrid),[2],70 fold
